Key:
[1] = biological target: human TNFR1 (soluble recombinant protein) (human) (UniProt P19438); test: phage ELISA on plate coated with 1 nM TNFR1, anti-M13-HRP; 0 µg/ml trypsin; phage input 1.13E+10
[2] = biological target: human TNFR1 (soluble recombinant protein) (human) (UniProt P19438); test: phage ELISA on plate coated with 1 nM TNFR1, anti-M13-HRP; 0 µg/ml trypsin; phage input 1.41E+09
[3] = biological target: human TNFR1 (soluble recombinant protein) (human) (UniProt P19438); test: phage ELISA on plate coated with 1 nM TNFR1, anti-M13-HRP; 0 µg/ml trypsin; phage input 2.26E+10
[4] = biological target: human TNFR1 (soluble recombinant protein) (human) (UniProt P19438); test: phage ELISA on plate coated with 1 nM TNFR1, anti-M13-HRP; 0 µg/ml trypsin; phage input 2.82E+09
[5] = biological target: human TNFR1 (soluble recombinant protein) (human) (UniProt P19438); test: phage ELISA on plate coated with 1 nM TNFR1, anti-M13-HRP; 0 µg/ml trypsin; phage input 3.52E+08
[6] = biological target: human TNFR1 (soluble recombinant protein) (human) (UniProt P19438); test: phage ELISA on plate coated with 1 nM TNFR1, anti-M13-HRP; 0 µg/ml trypsin; phage input 4.51E+10
[7] = biological target: human TNFR1 (soluble recombinant protein) (human) (UniProt P19438); test: phage ELISA on plate coated with 1 nM TNFR1, anti-M13-HRP; 0 µg/ml trypsin; phage input 5.64E+09
[8] = biological target: human TNFR1 (soluble recombinant protein) (human) (UniProt P19438); test: phage ELISA on plate coated with 1 nM TNFR1, anti-M13-HRP; 0 µg/ml trypsin; phage input 7.05E+08
[9] = biological target: human TNFR1 (soluble recombinant protein) (human) (UniProt P19438); test: phage ELISA on plate coated with 1 nM TNFR1, anti-M13-HRP; phage treated 1 h at room temperature with 1 mg/ml trypsin; phage input 1.13E+10
[10] = biological target: human TNFR1 (soluble recombinant protein) (human) (UniProt P19438); test: phage ELISA on plate coated with 1 nM TNFR1, anti-M13-HRP; phage treated 1 h at room temperature with 1 mg/ml trypsin; phage input 1.41E+09
[11] = biological target: human TNFR1 (soluble recombinant protein) (human) (UniProt P19438); test: phage ELISA on plate coated with 1 nM TNFR1, anti-M13-HRP; phage treated 1 h at room temperature with 1 mg/ml trypsin; phage input 2.26E+10
[12] = biological target: human TNFR1 (soluble recombinant protein) (human) (UniProt P19438); test: phage ELISA on plate coated with 1 nM TNFR1, anti-M13-HRP; phage treated 1 h at room temperature with 1 mg/ml trypsin; phage input 2.82E+09
[13] = biological target: human TNFR1 (soluble recombinant protein) (human) (UniProt P19438); test: phage ELISA on plate coated with 1 nM TNFR1, anti-M13-HRP; phage treated 1 h at room temperature with 1 mg/ml trypsin; phage input 3.52E+08
[14] = biological target: human TNFR1 (soluble recombinant protein) (human) (UniProt P19438); test: phage ELISA on plate coated with 1 nM TNFR1, anti-M13-HRP; phage treated 1 h at room temperature with 1 mg/ml trypsin; phage input 4.51E+10
[15] = biological target: human TNFR1 (soluble recombinant protein) (human) (UniProt P19438); test: phage ELISA on plate coated with 1 nM TNFR1, anti-M13-HRP; phage treated 1 h at room temperature with 1 mg/ml trypsin; phage input 5.64E+09
[16] = biological target: human TNFR1 (soluble recombinant protein) (human) (UniProt P19438); test: phage ELISA on plate coated with 1 nM TNFR1, anti-M13-HRP; phage treated 1 h at room temperature with 1 mg/ml trypsin; phage input 7.05E+08
[17] = biological target: human TNFR1 (soluble recombinant protein) (human) (UniProt P19438); test: phage ELISA on plate coated with 1 nM TNFR1, anti-M13-HRP; phage treated 1 h at room temperature with 10 µg/ml trypsin; phage input 1.13E+10
[18] = biological target: human TNFR1 (soluble recombinant protein) (human) (UniProt P19438); test: phage ELISA on plate coated with 1 nM TNFR1, anti-M13-HRP; phage treated 1 h at room temperature with 10 µg/ml trypsin; phage input 1.41E+09
[19] = biological target: human TNFR1 (soluble recombinant protein) (human) (UniProt P19438); test: phage ELISA on plate coated with 1 nM TNFR1, anti-M13-HRP; phage treated 1 h at room temperature with 10 µg/ml trypsin; phage input 2.26E+10
[20] = biological target: human TNFR1 (soluble recombinant protein) (human) (UniProt P19438); test: phage ELISA on plate coated with 1 nM TNFR1, anti-M13-HRP; phage treated 1 h at room temperature with 10 µg/ml trypsin; phage input 2.82E+09
[21] = biological target: human TNFR1 (soluble recombinant protein) (human) (UniProt P19438); test: phage ELISA on plate coated with 1 nM TNFR1, anti-M13-HRP; phage treated 1 h at room temperature with 10 µg/ml trypsin; phage input 3.52E+08
[22] = biological target: human TNFR1 (soluble recombinant protein) (human) (UniProt P19438); test: phage ELISA on plate coated with 1 nM TNFR1, anti-M13-HRP; phage treated 1 h at room temperature with 10 µg/ml trypsin; phage input 4.51E+10
[23] = biological target: human TNFR1 (soluble recombinant protein) (human) (UniProt P19438); test: phage ELISA on plate coated with 1 nM TNFR1, anti-M13-HRP; phage treated 1 h at room temperature with 10 µg/ml trypsin; phage input 5.64E+09
[24] = biological target: human TNFR1 (soluble recombinant protein) (human) (UniProt P19438); test: phage ELISA on plate coated with 1 nM TNFR1, anti-M13-HRP; phage treated 1 h at room temperature with 10 µg/ml trypsin; phage input 7.05E+08
[25] = biological target: human TNFR1 (soluble recombinant protein) (human) (UniProt P19438); test: phage ELISA on plate coated with 1 nM TNFR1, anti-M13-HRP; phage treated 1 h at room temperature with 100 µg/ml trypsin; phage input 1.13E+10
[26] = biological target: human TNFR1 (soluble recombinant protein) (human) (UniProt P19438); test: phage ELISA on plate coated with 1 nM TNFR1, anti-M13-HRP; phage treated 1 h at room temperature with 100 µg/ml trypsin; phage input 1.41E+09
[27] = biological target: human TNFR1 (soluble recombinant protein) (human) (UniProt P19438); test: phage ELISA on plate coated with 1 nM TNFR1, anti-M13-HRP; phage treated 1 h at room temperature with 100 µg/ml trypsin; phage input 2.26E+10
[28] = biological target: human TNFR1 (soluble recombinant protein) (human) (UniProt P19438); test: phage ELISA on plate coated with 1 nM TNFR1, anti-M13-HRP; phage treated 1 h at room temperature with 100 µg/ml trypsin; phage input 2.82E+09
[29] = biological target: human TNFR1 (soluble recombinant protein) (human) (UniProt P19438); test: phage ELISA on plate coated with 1 nM TNFR1, anti-M13-HRP; phage treated 1 h at room temperature with 100 µg/ml trypsin; phage input 3.52E+08
[30] = biological target: human TNFR1 (soluble recombinant protein) (human) (UniProt P19438); test: phage ELISA on plate coated with 1 nM TNFR1, anti-M13-HRP; phage treated 1 h at room temperature with 100 µg/ml trypsin; phage input 4.51E+10
[31] = biological target: human TNFR1 (soluble recombinant protein) (human) (UniProt P19438); test: phage ELISA on plate coated with 1 nM TNFR1, anti-M13-HRP; phage treated 1 h at room temperature with 100 µg/ml trypsin; phage input 5.64E+09
[32] = biological target: human TNFR1 (soluble recombinant protein) (human) (UniProt P19438); test: phage ELISA on plate coated with 1 nM TNFR1, anti-M13-HRP; phage treated 1 h at room temperature with 100 µg/ml trypsin; phage input 7.05E+08
[33] = biological target: T1, TNFR1-FC fusion (human, UniProt P19438 22-211); test: human TNFR1 receptor binding assay: inhibition of the binding of TNF-alpha (10 ng/ml) to bead-captured TNFR1-Fc; four replicates
T1 construct: not shown: Fc part not described (captured with goat anti-human IgG (H&L))
T1 sequence (looked up): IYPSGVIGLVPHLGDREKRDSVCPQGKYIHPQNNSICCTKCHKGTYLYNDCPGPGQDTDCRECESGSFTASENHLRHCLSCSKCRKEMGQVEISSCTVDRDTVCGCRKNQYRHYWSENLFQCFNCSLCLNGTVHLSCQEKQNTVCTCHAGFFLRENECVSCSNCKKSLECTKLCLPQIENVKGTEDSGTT

Question: What does the source list for DOM1h-131 phage?
Answer: phage ELISA signal [1]: 0.949; phage ELISA signal [2]: 0.85; phage ELISA signal [3]: 0.944; phage ELISA signal [4]: 0.946; phage ELISA signal [5]: 0.577; phage ELISA signal [6]: 0.916; phage ELISA signal [7]: 0.962; phage ELISA signal [8]: 0.705; phage ELISA signal [9]: 0.183; phage ELISA signal [10]: 0.089; phage ELISA signal [11]: 0.229; phage ELISA signal [12]: 0.114; phage ELISA signal [13]: 0.08; phage ELISA signal [14]: 0.284; phage ELISA signal [15]: 0.133; phage ELISA signal [16]: 0.084; phage ELISA signal [17]: 0.86; phage ELISA signal [18]: 0.409; phage ELISA signal [19]: 0.802; phage ELISA signal [20]: 0.573; phage ELISA signal [21]: 0.213; phage ELISA signal [22]: 0.784; phage ELISA signal [23]: 0.695; phage ELISA signal [24]: 0.286; phage ELISA signal [25]: 0.284; phage ELISA signal [26]: 0.115; phage ELISA signal [27]: 0.377; phage ELISA signal [28]: 0.141; phage ELISA signal [29]: 0.084; phage ELISA signal [30]: 0.418; phage ELISA signal [31]: 0.196; phage ELISA signal [32]: 0.084

B1: DOM1h-131-202 (other)
VH: EVQLLESGGGLVQPGGSLRLSCAASGFTFAHETMVWVRQAPGKGLEWVSHIPPDGQDPFYADSVKGRFTISRDNSKNTLYLQMNSLRAEDTAVYYCALLPKRGPWFDYWGQGTLVTVSS
notes: also called GSK1922567A
Question: With B1 as the molecule, how does the “IC50 (read off the curve)” value [33] read?
Answer: Its value is ~200 pM.

Source: patent US20110086019A1 (DOMANTIS, published 2011)
